The assay addresses AcoD, ATP-dependent DMSP lyase of Psychrobacter sp. D2 (Psychrobacter sp. D2). As to the kind of experiment: SEC. A general note: SEC sorts molecules by how far they enter the pores of the column.

The values that follow come from doi:10.1101/2020.10.29.360743.

Substance “AcoD, ATP-dependent DMSP lyase of Psychrobacter sp. D2 (enzyme)” gave a stoichiometry N of 2.

For orientation: stoichiometry N means the number of molecules, sites or subunits per partner or assembly.
